We go through 5 molecules from patent US20210179727A1 (LYVGEN BIOPHARMA, published 2021).

The labels stand for the following.
B1: LYV378 (chimeric antibody, 9F12D9 in human IgG4SP / human kappa) (antibody, V domains shown)
VH: EVHLVESGGGLVQPGRSLKLSCAASGFTFTNYGLHWIRQAPTKGLEWVASISPSGGVTYYRDSVKGRFTISRDNGKTTLHLQMDSLRSEDTATYYCALPFLGWGGANWIAHWGQGTLVTVSS
VL: DIQMTQSPASLSASLGETVSIECLASEDISNDLAWYQQKSGKSPQLLIYFVDRLLDGVPSRFSGSGSGTRHSLKISGMQPEDEADYFCQQSYKYPPTFGGGTKLELKR
notes: Human IgG4 S228P and human kappa; elsewhere it is 9F12D9; also called 9F12D9 chimeric; 9F12D8
B2: LYV377 (chimeric antibody, 13F1A7 in human IgG4SP / human kappa) (antibody, V domains shown)
VH: EVQILETGGGLVKPGGSLRLSCATSGFNFNDSFMNWVRQAPGKGLEWVAQIRNKNYNYATYYTESLEGRVTISRDDSKSRVYLQVSSLRAEDSAVYYCTSYYYDGFADYFDYWGQGVMVTVSS
VL: DIKMTQSPSFLSASVGDSVTFTCKASQNIYIYLNWYQQKFGEAPKLLIYNTNNLQTGIPSRFSGSESGTVFTLTISSLQPEDVATYFCLQHSSRRTFGGGTKLELKR
notes: Human IgG4 S228P and human kappa; also called 13F1A7 chimeric; LTV377
B3: LYV391 (chimeric antibody, 36G7B8 in hG4SP / human kappa) (antibody, human IgG4 S228P, kappa, V domains shown)
VH: QVQLQQPGAELVRPGASVKLSCKASGYIFISYWIHWLKQRPGRGLEWIGRIDPNNGGTKYNEKFRYKASLTVDKSSSTAYMQLSSLTSEDSAVYYCTKGVITTLVAGDYWGQGTTLTVSS
VL: DVVMTQIPLSLPVSIGDQASISCRSSQSLVYSYGNTYLHWFLQKPGQSPKLLIYNVSNRFSGVPDRFSGSGSGTDFTLRISRVEAEDLGVYFCSQGTHVPWTFGGGTKLEIKR
notes: Human IgG4 S228P and human kappa; also called 36G7B8 chimeric; 366788 (LYV391)
B4: LYV379 (chimeric antibody, 17C5C2 in human IgG4SP / human kappa) (antibody, V domains shown)
VH: EVHILETGGGLVKPGGSLGLSCTTSGFNFNDYFMNWVRQAPGKGLEWVAQIRNGNYDYAAYYAESLEGRVTISRDDSKSSVNLQVSSLRAEDTAIYYCTSYYYDGHFDYFDNWGHGVMVTVSS
VL: DIKVTQSPSFLSASVGDRATINCKASQNLNKYLNWYQQKPGEPPKLLIYNTDNLYTGIPSRFSGSGSVADFTLTISGLQPEDVATYFCMQHNVRRTFGGGTKLELKR
notes: Human IgG4 S228P and human kappa; also called 17C5C2 chimeric
B5: LYV376 (chimeric antibody, 19G6D6 in human IgG4SP / human kappa) (antibody, V domains shown)
VH: EVQLQQSGPELVKPGASVKIPCKASGYTFTDYNMDWVKQSHGKSLEWIGDINPNNDISIYNQKFRGKATLTVDKSSSTAYMELRSLTSEDTAVYYCARRFAYWGQGTLVTVSA
VL: EIVLTQSPTTMAASPGEKITITCSASSSISSNYLHWYQQKPGSSPKVLIYRTSNLASGVPVRFSGSGSGTSYSLTIGTMEAEDVATYYCQQGSSIPYTFGGGTKLEIKR
notes: also called 19G6D6 chimeric; 1966D6 (LYV376)

In one experiment the target is T1, human CD40-His tag protein (Sino Biological Inc. Cat #10239-H08E) (human, UniProt P25942 21-193).
T1 construct: also called human CD40 protein; CD40 protein; not shown: His tag
T1 sequence (P25942 21-193 limits assumed, stated change not applied): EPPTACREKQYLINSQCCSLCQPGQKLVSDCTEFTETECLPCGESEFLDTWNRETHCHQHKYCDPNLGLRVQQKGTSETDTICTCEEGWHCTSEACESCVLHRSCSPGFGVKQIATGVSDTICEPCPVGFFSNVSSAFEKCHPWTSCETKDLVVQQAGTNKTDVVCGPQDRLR
Kind of experiment: ELISA, plate coated with human CD40-His at 1 ug/ml, anti-human IgG-HRP, A450. The protocol: CD40 protein (human CD40-His tag protein (Sino Biological Inc. Cat #10239-H08E) or rhesus monkey CD40-His (Sino Biological Inc. Cat #90097-C02H) was diluted in PBS to 1 ug/ml and used to coat an ELISA plate (Corning, Cat #9018, high binding) at a concentration of 50 ul/well. The plate was incubated overnight at 4° C. The plate was then decanted and washed with PBS-T, and 200 μl/well assay diluent (1×PBS/1% BSA/0.05% Tween-20/0.05% proclin 300) was added. After a 3 hour incubation at room temperature, the plate was washed with PBS-T three times. The testing antibodies were diluted in assay diluent to 0, 0.000003, 0.00003, 0.0003, 0.003, 0.03, and 0.3 ug/ml or approximately 0, 0.00002, 0.0002, 0.002, 0.02, 0.2 and 2 nM and then added to the plate (50 ul/well). The plate was incubated for one hour at 37° C. and then washed three times with PBS-T. Anti-human IgG-HRP conjugate (Bethyl Cat #A80-319P) at a 1:10,000 dilution was added to the plate (100 ul/well). The plate was incubated for 0.5 hour at 37° C., followed by washing with PBS-T three times. The TMB substrate solution was added (100 ul/well). The color was allowed to develop for 8 minutes before it was stopped with 100 ul/well 2N H₂SO₄. Absorbance at 450 nm was determined with an ELISA reader.
On the technique in general: An ELISA detects its analyte on a solid surface through an enzyme-linked reagent.
For orientation: EC50 (read off the curve) means the midpoint of the concentration-response curve. As for B1, the “EC50 (read off the curve)” value is roughly 4 ng/mL.

In the case of B2, the “EC50 (read off the curve)” value is roughly 4 ng/mL.

Take B3: the “EC50 (read off the curve)” value was roughly 20 ng/mL.

In the case of B4, the 50% effective concentration (EC50 (read off the curve)) is roughly 20 ng/mL.

For the molecule B5, the “EC50 (read off the curve)” value was roughly 3 ng/mL.

The target in a further experiment is monkey CD40 protein (plate coat of the ELISA of Fig. 5) (cynomolgus monkey per paragraph 23; rhesus …). As to the kind of experiment: ELISA on monkey CD40 protein coated on the plate, anti-human IgG-HRP, A450.
Take B4: the concentration giving a half-maximal response (EC50 (read off the curve)) was roughly 5 ng/mL.
